Measurements: paper PMC7117912 (2020)
Ends that are not written are not given here.

Target: H2-D^b (mouse MHC I heavy chain ectodomain) refolded with human β2-microglobulin (mouse | human)
Experiment: FP

B1: ASNC*NMETM (fluorescently labeled high-affinity peptide for H2-D^b) (peptide)
peptide: ASNC(TAMRA)NMETM
Question: For B1, which koff is on record?
Answer: 0.00035 s⁻¹
